What was measured:
[1] = LC-MS assay of GH3 conjugation of 2,4-D with Asp or Glu; format: biochemical; conditions: 5 mM 2,4-D substrate; for kcat (hrs−1) 2,4-D-Asp: conjugation of 2,4-D with Asp by recombinant GH3 protein, 2,4-D-Asp product by LC-MS; for kcat (hrs−1) 2,4-D-Glu: conjugation of 2,4-D with Glu by recombinant GH3 protein, 2,4-D-Glu product by LC-MS
Outline: (§1)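 N-terminal His-tagged GH3 homologs, expressed in E. coli C41(DE3) and Ni-NTA purified, at 44 to 164 μg/mL incubated 3 h at 30 °C in 20 mM Tris-HCl pH 8.0, 5 mM MgCl2, 1 mM DTT, 5 mM ATP, 5 mM auxin (IAA, 2,4-D or dicamba) and 5 mM Asp or Glu. Conjugates quantified by LC-MS against standards after MeOH precipitation; kinetics from Michaelis-Menten fits of initial velocities.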

[2] = LC-MS assay of GH3 conjugation of IAA with Asp or Glu; format: biochemical; conditions: for kcat (hrs−1) IAA-Asp: conjugation of IAA with Asp by recombinant GH3 protein, IAA-Asp product by LC-MS; for kcat (hrs−1) IAA-Glu: conjugation of IAA with Glu by recombinant GH3 protein, IAA-Glu product by LC-MS
Outline: as §1

Molecule | kcat (hrs−1) 2,4-D-Asp [1] [h⁻¹] | kcat (hrs−1) 2,4-D-Glu [1] [h⁻¹] | kcat (hrs−1) IAA-Asp [2] [h⁻¹] | kcat (hrs−1) IAA-Glu [2] [h⁻¹]
PtGH3-5: GH3 protein, accession EEE97566 (protein, listed as Populus trichocarpa) MPEAPKNTLKPSDYNLAEKNKKSLQFIEDVTSNADEAQKKVLEEILSRNAHVEYLQRHGLNGQTNRETFKKVMPVINYEDIQPDINRIANGDASPILCSKPISEFLTSSGTSGGERKLMPTIVEELGRRSLLYSLLMPVMSQFVPDLEKGKGMYFLFIKSEAKTPGGLVARPVLTSYYKSTHFKDRPYDPYTNYTSPNETILCPDSYQSMYSQMLCGLCQHKEVLRVGAVFASGFIRAIRFLEKYWKFLANDIRTGIIDPQITDPSIREAVMKILKPDAKLADFIEAECSKESWQGIITRLWPNTKYVDVIVTGTMSQYIPTLDYYSNGLPLVCTMYASSECYFGVNLNPICKPSEVSYTLIPTMAYFEFLPVNRNNGGINSVSRPKSLKEKEQQELVDLVDVKLDQEYELVVTTYAGLYRYRVGDVLRVVGFKNKAPQFSFICRKNVVLSIDSDKTDEVELQSAVKNAVNHLIPFDATLAEYTSYADTTTIPGHYVLFWELSLSGSTPIPPSVFEDCCLTIEESLNSVYRQGRVSDKSIGPLEIKIVEPGTFDKLMDYAISLGASINQYKTPRCVKFAPIVELLNSRAVSRYFSPKCPKWVPGHKQWNKN | 3.142 | 1.214 | 941.117 | 160.490
PtGH3-1: GH3 protein, accession EEE70316 (protein, listed as Populus trichocarpa) MAIESVLSPLGPPACEKDAKALQFIEDMTANVDLVQERVLKEILTSNAETEYLQKYHLNGATDRDSFKSKIPMVTYEDLQPQIQRIANGDKSPILSSHPISEFLTSSGTSAGERKLMPTIEEEMDRRQLLYSLLMPVMNLYVPGLDKGKGLYFYFIKAEAKTPGGLVARPVLTSYYKSKQFKTRPYDPYNVITSPNETILCVDSFQSMYSQMLCGLIMREEVLRVGAVFASGLLRAIRFLQLNWKELANDISTGSLNPKVTNPSIRECMAKILKPNQELAEFITKECSDENWERIITRIWPNTKYLDVIVTGAMAQYIPTLDYYSGGLPKPCTMYASSECFFGLNLRPMSEPSEVSYTIMPNMGYFEFLPHDPSAPAFSRESPPRLLDLADLEVGKEYELVITTYSGLNRYRVGDILLVTGFYNKAPQFRFVRRKNVLLSIESDKTDEAELQKAIDNASLLLREFNTSVVEYTSYAETKIIPGHYVIYWELLVKDPANSPTEEVLNQCCLAMEESLNSVYRQSRVADNSIGPLEIRVVKNGTFEELMDYAISRGASINQYKVPRCVSFTPIMELLDSRVVSKHFSPSVPHWTPERRS | 4.798 | 0.181 | 900.907 | 39.695
PiGH3-16: GH3 protein, accession CAJ14972 (protein, Pinus pinaster) MPQAKREEGIESVQESIIIATTERNRKALDFIEHATIHAAEVQAEVLLEILTRNAYTEYLERYQLTGRTDRKSFKERLPVITYEDLQPEILRIANGDMSPILSAHPISEFLTSSGTSAGERKIMPTIHEELKRRTLLYSLLMPVMNQYMKGLDKGKGMYFLFVKSETRTPGGLLARPVLTSYYKSQDFIERPYDPYNVYTSPMEAILCSDSYQSMYCQLLCGLAQNHEVLRVGAVFASGLLRAIRFLEEHWQSLCQDIRSGTVNDEEVTDPCLRESVMKILHPNTQLADLIRTECSKESWQGIITRLWPNARYLDVIVTGAMAQYIKTLDFYSGGLPQVCTMYASSECYFGINLKPLCQPWEVSYTLMPNMAFFEFLPVYRNKNEDAGPVTTATEQPAELVDLVDVKVGQEYELVITTYSGLYRYRVGDVLRVTGFHNAAPQFQFVCRKNVMLSIDADKTDEAELHNAVMNAVKHLEPLEATLVEYTSYTDTSTIPGHYVLYWELRTSALPVPPSVFEDCCLTVEESLNSVYRQCRVADKSIGPLEIKVVEMGTFDKLMDYAISRGSSINQYKAARCVKFAPMVDILNSRVSASYFSPRCPKWTAGRTQWGALPR | 0.379 | 0.089 | 656.761 | 51.037
PtGH3-4: GH3 protein, accession EEE95321 (protein, listed as Populus trichocarpa) MPEEAPMKNLVCEKSRKALQFIEDVTRNADEVQRKVLAEILSRNANVEYLQRYGLNGNKADREAFKKVMPVVSYEDLKPDIDRIANGDTSQIICSQPISEFLTSSGTSAGERKLMPTIEEELGRRSLLYSLLMPVMNQFVPGLDRGKGMYFLFIKSETKTPGGLLARPVLTSYYKSSYFRDRPYDPYTNYTSPNETILCQDSYQSMYSQLLCGLYQNYDVLRVGAVFASGFIRAIKFLEKHWILLCNDIRNGTIDPKISDPSVREAVLKILKPNQKLADFIEAECTRESWKGIITRLWPNTKYIDVIVTGTMSQYIPTLDYYCDGLPLVCTMYASSECYFGLNLNPLSKPSEVSYTLIPTMAYFEFLPVNRKNGLINSITAPTSLDQKKDQELVDLVDVKLGEEYELVVTTYAGLYRYRVGDILRVAGFKNKAPQFNFVCRKNVVLSIDSDKTDEVELQNAVQNAANHLLPFGASLTEYTSYADTSKIPGHYVLFWEICLSGTTPIPPSVFEDCCLAIEESLNSVYRQGRVSDKSIGPLEIRITERGAFDKLMDFALSQGASINQYKAPRCVKYAPIIELLNSRVVSNYISPKCPKWVPGHKQWCTPN | 0.740 | 0.536 | 660.985 | 93.781
PtGH3-3: GH3 protein, accession EEE85053 (protein, listed as Populus trichocarpa) MAVDNALSSPLGPPACEKDAKALQFIEEMTRKTDSVQEDVLAKILIQNAEVEYLKRFNLDGATDRETFKSKLPTIRYEDLQPEIQRIANGDRSSILSTHPISEFLTSSGTSAGERKLMPTIKQELDRRQLLYSLLMPVMNLYVPGLDKGKGLYFLFVKSETRTPGGLLARPVLTSYYKSDHFKTRPYDPYNVYTSPNEAILCADSFQSMYTQMLCGLLEREQVLRVGAVFASGLLRAIRFLQLHWRELADDIESGMLNKEITDPSVKDCMVKILKPNPKLAEFVRMECSKENWEGIITRIWPNTKYLDVIVTGAMAQYIPTLDYYSGGLPLACTMYASSECYFGLNLNPMCKPSEVCYTIMPNMAYFEFLPHDPNGFTHDSTPKLVDLADVELGKEYELVITTYAGLYRYQVGDILRVTGFHNSAPQFHFVRRKNVLLSIDSDKTDEAELQKAVENASQLLREFNTSVVEYTSYADTKTIPGHYVIYWELLVKDLANSPSDEVLNQCCLAMEECLNSVYRQGRVADYSIGPLEIRVVKNGTFEELMDYAISRGASINQYKVPRCVNFTPIMELLDSRVVSKHFSPALPYWTPERRR | 2.033 | 0.845 | 806.314 | 44.225
PtGH3-2: GH3 protein, accession EEE87842 (protein, listed as Populus trichocarpa) MAVDNALSSPLGPPACEKDAKALQFLEEMTRNADSVQEDVLAKILTQNSEVEYLKRFNLDGAIDRETFKSKIPMIRYEDLQPEIQRIANGDRSSILSAHPISEFLTSSGTSAGERKLMPTIKQELDRRQLLYSLLMPVMNLYVPGLDKGKGLYFLFVKSETRTPGGLLARPVLTSYYKSDHFKTRPYDPYNVYTSPNEAILCADSFQSMYTQMLCGLLEREQVLRVGAVFASGLLRAIRFLQLHWRELSDDIESGMLNKKITDPTVKDCMVNILKPNPKLAEFVRMECGKENWEGIITRIWPNTKYLDVIVTGAMAQYIPTLDYYSGGLPKACTMYASSECYFGLNLNPMCKPSEVCYTIMPNMAYFEFLPHEPAGISQDSTPKLVDLADVELGKEYELVITTYAGLYRYRVGDILRVTGFHNSAPQFHFVRRKNVLLSIDSDKTDEAELQTAVENASQLLREFNTSVVEYTSHADTKTIPGHYVIYWELLVKDSANSPGDEVLNQCCLAMEESLNSVYRQGRVADNSIGPLEIRVVKNGTFEELMDYAISRGASINQYKVPRCVNFTPIMELLDSRVVSKHFSPALPRWAPERRR | 0.934 | 0.203 | 679.646 | 53.401
PtGH3-8: GH3 protein, accession EEE78719 (protein, listed as Populus trichocarpa) MLPIFDPNDNEAGLKLLEDLTNNACQIQRQVLEYILTTNLHTGYLKSFLNGDSSKENFKNKVPIVNYEDIKPCIERIANGEPSSIISAQPITELLTSSGTSGGQPKMMPSTAEELERKTFFYNLLMPIMNKYVDGLDQGKGMYLLFTKPEISTPSGLMARPVLTSYYKSSNFRNRAFNRYNVYTSPDETILCPDSKQSMYCQLLCGLVQREEVLRVGAVFASAFLRAIKFLEEYQKELCSNIRTGRLSDWITDPNCRNAVSSFLSKPNSELADLIEVECSGKSCEGIIKKLWPRTKYIEVIVTGSMAQYIPTLEFYSGGLPLVSTMYGSSECYLGINFKPLSNPSDVSYTLIPNMAYFEFLPVDKDNKKVIQAEKDVEAVDLEDVKLGHYYELVVTTFTGLYRYRVGDILMVTGFYNNAPQFRFVHRRNVVLSIDTDKTNEEDLLKAVTQAKVLLEPLGFLLTEYTSFADTSSIPGHYVLFWELKTQGTNDLPELDPITMEKCCSTVEESLDSIYRRCRKKDKSIGPLEIRVVTHGTFDALMDFCVSQGSSVNQYKTTRCIKSEEAFKILHSRVVGRFFSKKTPFWE | 0.000 | 0.559 | 13.999 | 568.780

From patent US20150351390A1, “COMPOSITIONS AND METHODS FOR AUXIN-ANALOG CONJUGATION” (PIONEER HI-BRED INTERNATIONAL, INC., priority 2012, published 2015)
